From patent US20240209070A1 (LUNDQUIST INSTITUTE FOR BIOMEDICAL INNOVATION AT HARBOR …, published 2024)
Where two headings read alike, the source gives them in different places.

How the values were obtained:
[1] = target: T1, recombinant CotH3 protein of Rhizopus delemar 99-880 (Flag-TEV-CotH3 made in S. cerevisiae) (Rhizopus delemar 99-880 (Rhizopus …, UniProt I1CFE1 18-579)); experiment: BLI (Gator), antibody from culture medium on Protein G sensor
T1 construct: also called CotH3 antigen; rCotH3p
T1 sequence: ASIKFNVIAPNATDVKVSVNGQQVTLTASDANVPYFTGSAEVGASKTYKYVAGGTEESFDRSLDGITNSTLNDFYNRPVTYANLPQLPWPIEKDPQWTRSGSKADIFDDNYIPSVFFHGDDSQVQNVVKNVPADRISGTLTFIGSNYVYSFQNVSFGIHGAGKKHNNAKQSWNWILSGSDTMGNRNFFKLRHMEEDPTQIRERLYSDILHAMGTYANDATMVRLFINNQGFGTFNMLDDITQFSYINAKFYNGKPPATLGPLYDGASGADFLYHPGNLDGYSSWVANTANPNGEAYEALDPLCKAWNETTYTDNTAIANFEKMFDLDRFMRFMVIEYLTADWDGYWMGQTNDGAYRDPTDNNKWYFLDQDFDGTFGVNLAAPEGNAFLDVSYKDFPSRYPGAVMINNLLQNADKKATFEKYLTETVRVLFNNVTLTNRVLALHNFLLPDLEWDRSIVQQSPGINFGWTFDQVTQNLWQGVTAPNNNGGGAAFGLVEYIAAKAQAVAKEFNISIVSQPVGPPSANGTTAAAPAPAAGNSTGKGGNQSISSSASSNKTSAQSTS

[2] = target: T2, Mucor circinelloides (Mucor circinelloides); experiment: flow cytometry on fixed Mucor circinelloides spores, 20 ug/ml antibody; blank 'Hu 2nd Only' median 990.21, mean 1062.19
T2 construct: native, on paraformaldehyde-fixed spores; also called cell-surface CotH antigen on Mucor circinelloides spores

[3] = target: T3, Rhizomucor (Rhizomucor (species not given)); experiment: flow cytometry on fixed Rhizomucor spores, 20 ug/ml antibody; blank 'Hu 2nd Only' median 257.20, mean 272.52
T3 construct: native, on paraformaldehyde-fixed spores; also called cell-surface CotH antigen on Rhizomucor spores

[4] = target: T4, Cunninghamella bertholletiae (Cunninghamella bertholletiae); experiment: flow cytometry on fixed Cunninghamella bertholletiae spores, 20 ug/ml antibody; blank 'Hu 2nd Only' median 241.78, mean 250.81
T4 construct: native, on paraformaldehyde-fixed spores; also called cell-surface CotH antigen on Cunninghamella bertholletiae spores

[5] = target: T5, Rhizopus delemar (Rhizopus delemar); experiment: flow cytometry on fixed Rhizopus delemar spores, 20 ug/ml antibody; blank 'Hu 2nd Only' median 565.83, mean 592.76
T5 construct: native, on paraformaldehyde-fixed spores; also called cell-surface CotH antigen on Rhizopus delemar spores

[6] = target: T1, recombinant CotH3 protein of Rhizopus …
[7] = target: T1, recombinant CotH3 protein of Rhizopus …; experiment: not stated (conclusions; reported affinity)
[8] = target: T1, recombinant CotH3 protein of Rhizopus …; experiment: dose response of Fnorm [per mille] against ligand concentration [M], Kd model, On Time 20s, TargetConc 5nM, Unbound 829.3, Bound 803.3, amplitude 26.0, signal to noise 20.5; method and antigen not named in the filing's text
[9] = target: T1, recombinant CotH3 protein of Rhizopus …; experiment: method and antigen form not stated
[10] = target: T1, recombinant CotH3 protein of Rhizopus …; experiment: BLI (Gator), antibody on Protein G sensor, CotH3 6.25-400 nM, 25 C
Experimental: (§1) The purified preparations were then used to assess the affinity of each clone for the CotH3 antigen by biolayer interferometry using Gator system (ProbeLife). Under the assumption that the CotH3 antigen provided by Vitalex behaves as a normal soluble monomeric protein, a Protein G coated sensor probe (ProbeLife, catalog #160006) was loaded with the bivalent antibody test clone at a concentration of 5 μg/ml in ProbeLife's kinetic buffer (PBS pH 7.4, 0.02% BSA, 0.002% Tween-20, 0.005% NaN₃). […] All reactions were performed at 25° C. The values are chosen when three or more concentrations yield the same kinetic values.

[11] = target: T1, recombinant CotH3 protein of Rhizopus …; experiment: BLI (Gator), from the KD values of Table 5
Experimental: as §1

B1: humanized variant LC2:HC1 (antibody, V domains shown)
VH: QVQLQESGPGLVKPSETLSLTCTVSGDSITSGYWSWIRQPPGKGLEWIGYIKYSGRTNYNPSLKSRVTISRDTSKNQFSLKLSSVTAADTAVYYCASRGYWGQGTLVTVSS
VL: DIVMTQTPLSLSVTPGQPASISCKSSQSLLDSDGKTFLNWLLQKPGQSPQLLIYLVSKLDSGVPDRFSGSGSGTDFTLKISRVEAEDVGVYYCWQGTHFPHTFGQGTKVEIKR
[1]
  binding result: no binding (tested: 30 nM CotH3)

B2: humanized anti-CotH3 antibody LC2:HC3 (antibody, human IgG1, kappa, V domains shown)
VH: QVQLQESGPGLVKPSETLSLTCTVSGDSITSGYWNWIRQPPGKGLEHIGYIKYSGRTFYNPSLKSRVTISRDTSKNQFSLKLSSVTAADTAVYYCASRGYWGQGTLVTVSS
VL: DIVMTQTPLSLSVTPGQPASISCKSSQSLLDSDGKTFLNWLLQKPGQSPQLLIYLVSKLDSGVPDRFSGSGSGTDFTLKISRVEAEDVGVYYCWQGTHFPHTFGQGTKVEIKR
notes: also called L2:H3; IgG anti-CotH3-LC2HC3
[2]
  Mean: FITC-A: 40600
  Median: FITC-A: 36500
[3]
  Mean: FITC-A: 29000
  Median: FITC-A: 29000
[4]
  Mean: FITC-A: 29800
  Median: FITC-A: 29200
[5]
  Mean: FITC-A: 28900
  Median: FITC-A: 27700

B3: humanized anti-CotH3 antibody LC3:HC2 (antibody, human IgG1, kappa, V domains shown)
VH: QVQLQESGPGLVKPSETLSLTCTVSGDSITSGYWSWIRQPPGKGLEHIGYIKYSGRTFYNPSLKSRVTISRDTSKNQFSLKLSSVTAADTAVYYCASRGYWGQGTLVTVSS
VL: DIVMTQTPLSLSVTPGQPASISCKSSQSLLDSDGKTFLNWLLQKPGQSPQRLIYLVSKLDSGVPDRFSGSGSGTDFTLKISRVEAEDVGVYYCWQGTHFPHTFGQGTKVEIKR
notes: also called L3:H2; IgG anti-CotH3-LC3HC2
[2]
  Mean: FITC-A: 43200
  Median: FITC-A: 37100
[3]
  Mean: FITC-A: 35900
  Median: FITC-A: 35900
[4]
  Mean: FITC-A: 35600
  Median: FITC-A: 34900
[5]
  Mean: FITC-A: 21800
  Median: FITC-A: 20600

B4: humanized anti-CotH3 antibody LC3:HC3 (antibody, human IgG1, kappa)
heavy: not shown
light: DIVMTQTPLSLSVTPGQPASISCKSSQSLLDSDGKTFLNWLLQKPGQSPQRLIYLVSKLDSGVPDRFSGSGSGTDFTLKISRVEAEDVGVYYCWQGTHFPHTFGQGTKVEIKRTVAAPSVFIFPPSDEQLKSGTASVVCLLNNFYPREAKVQWKVDNALQSGNSQESVTEQDSKDSTYSLSSTLTLSKADYEKHKVYACEVTHQGLSSPVTKSFNRGEC
notes: also called VX01; L3:H3
[2]
  Mean: FITC-A: 22500
  Median: FITC-A: 18800
[3]
  Mean: FITC-A: 19800
  Median: FITC-A: 19900
[4]
  Mean: FITC-A: 19300
  Median: FITC-A: 18900
[5]
  Mean: FITC-A: 18200
  Median: FITC-A: 17000

B5: humanized variant LC1:HC1 (antibody, V domains shown)
VH: QVQLQESGPGLVKPSETLSLTCTVSGDSITSGYWSWIRQPPGKGLEWIGYIKYSGRTNYNPSLKSRVTISRDTSKNQFSLKLSSVTAADTAVYYCASRGYWGQGTLVTVSS
VL: DIVMTQTPLSLSVTPGQPASISCKSSQSLLDSDGKTFLYWYLQKPGQSPQLLIYLVSKLDSGVPDRFSGSGSGTDFTLKISRVEAEDVGVYYCWQGTHFPHTFGQGTKVEIKR
[1]
  binding result: no binding (tested: 30 nM CotH3)

B6: humanized variant LC1:HC2 (antibody, V domains shown)
VH: QVQLQESGPGLVKPSETLSLTCTVSGDSITSGYWSWIRQPPGKGLEHIGYIKYSGRTFYNPSLKSRVTISRDTSKNQFSLKLSSVTAADTAVYYCASRGYWGQGTLVTVSS
VL: DIVMTQTPLSLSVTPGQPASISCKSSQSLLDSDGKTFLYWYLQKPGQSPQLLIYLVSKLDSGVPDRFSGSGSGTDFTLKISRVEAEDVGVYYCWQGTHFPHTFGQGTKVEIKR
[1]
  binding result: no binding (tested: 30 nM CotH3)

B7: humanized variant LC1:HC3 (antibody, V domains shown)
VH: QVQLQESGPGLVKPSETLSLTCTVSGDSITSGYWNWIRQPPGKGLEHIGYIKYSGRTFYNPSLKSRVTISRDTSKNQFSLKLSSVTAADTAVYYCASRGYWGQGTLVTVSS
VL: DIVMTQTPLSLSVTPGQPASISCKSSQSLLDSDGKTFLYWYLQKPGQSPQLLIYLVSKLDSGVPDRFSGSGSGTDFTLKISRVEAEDVGVYYCWQGTHFPHTFGQGTKVEIKR
[1]
  binding result: no binding (tested: 30 nM CotH3)

B8: humanized variant LC2:Grafted HC (antibody, V domains shown)
VH: QVQLQESGPGLVKPSETLSLTCTVSGDSITSGYWSWIRQPPGKGLEWIGYIKYSGRTNYNPSLKSRVTISVDTSKNQFSLKLSSVTAADTAVYYCASRGYWGQGTLVTVSS
VL: DIVMTQTPLSLSVTPGQPASISCKSSQSLLDSDGKTFLNWLLQKPGQSPQLLIYLVSKLDSGVPDRFSGSGSGTDFTLKISRVEAEDVGVYYCWQGTHFPHTFGQGTKVEIKR
[1]
  binding result: no binding (tested: 30 nM CotH3)

B9: humanized variant LC3:Grafted HC (antibody, V domains shown)
VH: QVQLQESGPGLVKPSETLSLTCTVSGDSITSGYWSWIRQPPGKGLEWIGYIKYSGRTNYNPSLKSRVTISVDTSKNQFSLKLSSVTAADTAVYYCASRGYWGQGTLVTVSS
VL: DIVMTQTPLSLSVTPGQPASISCKSSQSLLDSDGKTFLNWLLQKPGQSPQRLIYLVSKLDSGVPDRFSGSGSGTDFTLKISRVEAEDVGVYYCWQGTHFPHTFGQGTKVEIKR
[1]
  binding result: no binding (tested: 30 nM CotH3)

B10: humanized variant LC3:HC1 (antibody, V domains shown)
VH: QVQLQESGPGLVKPSETLSLTCTVSGDSITSGYWSWIRQPPGKGLEWIGYIKYSGRTNYNPSLKSRVTISRDTSKNQFSLKLSSVTAADTAVYYCASRGYWGQGTLVTVSS
VL: DIVMTQTPLSLSVTPGQPASISCKSSQSLLDSDGKTFLNWLLQKPGQSPQRLIYLVSKLDSGVPDRFSGSGSGTDFTLKISRVEAEDVGVYYCWQGTHFPHTFGQGTKVEIKR
[1]
  binding result: no binding (tested: 30 nM CotH3)

B11: mouse anti-CotH3 monoclonal antibody clone C2 (antibody, V domains shown)
VH: DLQLQESGPSLVKPSQTLSLTCSVTGDSITSGYWNWIRKFPGNKLEHMGYIKYSGRTFYNPSLKSRVSITRDTSKNQYYLQLNSVTSEDTATYYCASRGYWGQGTTLTVSS
VL: DVVMTQTPLSLSVTIGQPASISCKSSQSLLYSNGKTYLNWLQQRPGQAPKLLMFQVSKPGIPDRFSGSGSETDFTLKISRVEAEDLGVYYCLQGTYFPHTFGAGTKVEIK
notes: also called 6E11A8 mAb; mAb
[6]
  Kd: 58.9 nM
  koff: 0.00141 s⁻¹
  kon: 23900 M⁻¹ s⁻¹
[7]
  Kd: ~50 nM
[8]
  Kd: 40.4 nM
[9]
  Kd: ~40 nM

B12: C2 Chimera 2 (C2 VH on human IgG1 constant region with AvantGen cloned variable kappa on human kappa constant region) (antibody, V domains shown)
VH: DLQLQESGPSLVKPSQTLSLTCSVTGDSITSGYWNWIRKFPGNKLEHMGYIKYSGRTFYNPSLKSRVSITRDTSKNQYYLQLNSVTSEDTATYYCASRGYWGQGTTLTVSS
VL: DVVMTQTPLSLSVTIGQPASISCKSSQSLLYSNGKTYLNWLQQRPGQAPKLLMFQVSKPGIPDRFSGSGSETDFTLKISRVEAEDLGVYYCLQGTYFPHTFGAGTKVEIKR
notes: also called AvantGen LC-chimera
[10]
  Kd: 1.8 nM
  koff: 0.00111 s⁻¹
  kon: 627000 M⁻¹ s⁻¹
[11]
  fold improvement in affinity over the parental mouse mAb: 33 fold

B13: humanized variant Grafted LC:HC1 (antibody, V domains shown)
VH: QVQLQESGPGLVKPSETLSLTCTVSGDSITSGYWSWIRQPPGKGLEWIGYIKYSGRTNYNPSLKSRVTISRDTSKNQFSLKLSSVTAADTAVYYCASRGYWGQGTLVTVSS
VL: DIVMTQTPLSLSVTPGQPASISCKSSQSLLDSDGKTFLYWYLQKPGQSPQLLIYLVSSRFSPDRFSGSGSGTDFTLKISRVEAEDVGVYYCWQGTHFPHTFGQGTKVEIKR
[1]
  binding result: no binding (tested: 30 nM CotH3)
